Test results from patent US12068729B2, “Anti-factor XII/XIIa antibodies and uses thereof” (Regeneron Pharmaceuticals, Inc., priority 2018, dated 2024).

T1: human FXII (Homo sapiens, UniProt P00748)
T1 construct: plasma purified human FXII and FXIIa proteins (Enzyme Research Laboratories); purchased Enzyme Research Laboratories 1212; host or cells: human plasma (said of the same vendor's proteins used as immunogen)
T1 sequence (P00748 20-615): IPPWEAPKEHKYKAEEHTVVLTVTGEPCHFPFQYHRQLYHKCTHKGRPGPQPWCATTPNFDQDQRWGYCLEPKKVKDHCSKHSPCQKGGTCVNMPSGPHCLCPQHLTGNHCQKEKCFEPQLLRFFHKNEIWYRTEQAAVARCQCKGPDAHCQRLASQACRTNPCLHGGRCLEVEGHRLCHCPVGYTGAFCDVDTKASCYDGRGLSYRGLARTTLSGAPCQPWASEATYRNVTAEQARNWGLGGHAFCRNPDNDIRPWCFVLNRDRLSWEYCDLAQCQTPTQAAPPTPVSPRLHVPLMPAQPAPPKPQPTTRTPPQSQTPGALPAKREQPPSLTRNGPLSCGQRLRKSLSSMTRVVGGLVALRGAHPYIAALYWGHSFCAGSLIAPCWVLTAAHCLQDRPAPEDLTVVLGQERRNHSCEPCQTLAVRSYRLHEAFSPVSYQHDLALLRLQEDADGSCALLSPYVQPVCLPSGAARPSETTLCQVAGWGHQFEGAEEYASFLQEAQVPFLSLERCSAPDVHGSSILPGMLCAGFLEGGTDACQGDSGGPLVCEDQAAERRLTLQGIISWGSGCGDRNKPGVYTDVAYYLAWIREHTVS

T2: human FXIIa (Homo sapiens, UniProt P00748)
T2 construct: Factor XIIa, a beta-globulin plasma serine protease composed of an amino-terminal heavy chain and a carboxy-terminal light chain; purchased Enzyme Research Laboratories 1212a; host or cells: human plasma (said of the same vendor's proteins used as immunogen)
T2 sequence (P00748 20-372 limits assumed): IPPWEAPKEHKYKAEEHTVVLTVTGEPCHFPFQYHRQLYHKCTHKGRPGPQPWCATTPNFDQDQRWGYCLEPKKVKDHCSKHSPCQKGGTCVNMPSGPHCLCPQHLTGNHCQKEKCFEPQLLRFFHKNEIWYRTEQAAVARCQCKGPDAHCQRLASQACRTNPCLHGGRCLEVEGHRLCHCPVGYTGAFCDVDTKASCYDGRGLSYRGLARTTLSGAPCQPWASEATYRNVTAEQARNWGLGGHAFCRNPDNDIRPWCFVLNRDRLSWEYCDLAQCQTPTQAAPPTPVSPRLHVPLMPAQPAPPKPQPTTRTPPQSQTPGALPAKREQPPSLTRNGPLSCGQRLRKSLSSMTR
T2 sequence (P00748 373-615 limits assumed): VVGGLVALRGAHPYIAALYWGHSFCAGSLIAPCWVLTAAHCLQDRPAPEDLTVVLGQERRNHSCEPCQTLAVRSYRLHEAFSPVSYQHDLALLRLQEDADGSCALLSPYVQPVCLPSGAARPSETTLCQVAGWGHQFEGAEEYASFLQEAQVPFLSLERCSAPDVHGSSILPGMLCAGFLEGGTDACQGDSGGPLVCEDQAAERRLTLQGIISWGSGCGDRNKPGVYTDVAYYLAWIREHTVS

B1: mAb26049: fully human anti-FXII/FXIIa monoclonal antibody, HCVR/LCVR SEQ ID NOs: 34/42 (antibody, V domains shown)
VH: EVQLVESGGDLVQPGGSLRLSCAASGFTFNTYAMHWVRQAPGKGLEYISAIDTKGGSTYYADSVKGRFTISRDNSKNAQYLQMDSLRVEDMAVYYCARGFGLDVWGQGTTVTVSS
VL: DVVMTQSPLSLAVTLGQPASISCRSSQSLGYSDGNTYLNWFQQRPGQSPRRLIYKVSNRDSGVPDRFSGSGSGTDFTLKINRVETVDVGVYYCMQATHWPYTFGQGTKLEIK
B2: mAb26048: fully human anti-FXII/FXIIa monoclonal antibody, HCVR/LCVR SEQ ID NOs: 18/26 (antibody, V domains shown)
VH: EVQLVESGGGLVQPRGSLRLSCVASGFTFSDYGMSWVRQAPGKGLEWVSVIGGAGHGTYYADSVKGRFTISRDNSRNTLYLQMNSLRDEDTAVYYCAKKYYWNYVGGMDVWGRGTTVTVSS
VL: DIQMTQSPSSVSASVGDRVTITCRASQDINNWLAWYQQKPGKAPKLLISTASSLQSGVPSRFSGSGSGTDFTLTISSLQPEDFATYYCQQANSLPFTFGPGTKVDIK
B3: mAb26036: fully human anti-FXII/FXIIa monoclonal antibody, HCVR/LCVR SEQ ID NOs: 2/10 (antibody, V domains shown)
VH: QVQLVQSGAEVKKPGASVTVSCKASGYTFTSYYLHWVRQAPGQGLEWMGIINPSGGSTSYAQKFQGRVTMTRDTSTSTVYMELSSLRSEDTAVYYCARGVTTVTTYYHYYNMDVWGQGTTVTVSS
VL: DIQMTQSPSSLSASVGDRVTITCRASQGISNYLAWFQQKPGKAPKSLIYAASSLQSGVPSKFSGSGSGTDFTLTISSLQPEDFATYYCQKYNTYPLTFGGGTKVEIK

The molecules below were run against T1, human FXII (assay: Surface plasmon resonance (Biacore 4000) binding kinetics, hFXII). Settings: 25° C.
In the case of B1, the “100 nM Ag Bound (RU)” value is reported as 134.6 RU. For B2, the “100 nM Ag Bound (RU)” value was 327.5 RU. In the case of B3, the “100 nM Ag Bound (RU)” value is reported as 146.2 RU.

Same assay, conditions: 37° C.
In the case of B1, the “100 nM Ag Bound (RU)” value is reported as 178.5 RU. In the case of B2, the “100 nM Ag Bound (RU)” value is reported as 400.6 RU. With B3 the “100 nM Ag Bound (RU)” value was 272.3 RU.

What follows are molecules tested against T2, human FXIIa (assay: Surface plasmon resonance (Biacore 4000) binding kinetics, hFXIIa). Settings: 25° C.
In the case of B1, the “100 nM Ag Bound (RU)” value is reported as 162.4 RU. In the case of B2, the “100 nM Ag Bound (RU)” value is reported as 267.8 RU. With B3 the “100 nM Ag Bound (RU)” value was 89.9 RU.

Same assay, conditions: 37° C.
In the case of B1, the “100 nM Ag Bound (RU)” value is reported as 251.5 RU. With B2 the “100 nM Ag Bound (RU)” value was 335.6 RU. With B3 the “100 nM Ag Bound (RU)” value was 166.52 RU.
